Legend:
PCG2-DBD 12-138 = PCG2-DBD 12-138 (Magnaporthe oryzae, UniProt G4NA99 12-138); assay: SPR; SPR (Biacore T100, steady state): 20 mM Tris pH 8.0, 150 mM NaCl, 0.005% Tween20; temperature not stated; details: protein: recombinant; tags: N-terminal 6xHis; chain copies: 2; label: 5'-biotin on strand S2; blunt
PCG2-DBD 1-128 = PCG2-DBD 1-128 (Magnaporthe oryzae, UniProt G4NA99 1-128); assay: as above; details: protein: recombinant; tags: N-terminal 6xHis; label: 5'-biotin on strand S2; blunt
PCG2-DBD 12-128 = PCG2-DBD 12-128 (Magnaporthe oryzae, UniProt G4NA99 12-128); assay: as above; details: protein: recombinant; tags: N-terminal 6xHis; label: 5'-biotin on strand S2; blunt
PCG2-DBD WT [1] = molecular target: T1, PCG2-DBD WT (Magnaporthe oryzae, UniProt G4NA99 1-138); assay: as above; details: protein: recombinant; tags: N-terminal 6xHis (pHAT2); chain copies: 2; label: 5'-biotin on strand S2; blunt
PCG2-DBD WT [2] = molecular target: T1, PCG2-DBD WT; assay: crystal structure; two PCG2-DBD monomers per duplex; SPR (Biacore T100, steady state): 20 mM Tris pH 8.0, 150 mM NaCl, 0.005% Tween20; temperature not stated; details: protein: recombinant; tags: N-terminal 6xHis (pHAT2); chain copies: 2; blunt

B1: MCB1 DNA (SPR) (dsDNA)
DNA 1: CTTACGCGTCATTG
DNA 2: CAATGACGCGTAAG
B1 gave a Kd (PCG2-DBD 12-138) of 1.37 ± 0.45 µM, a Kd (PCG2-DBD 1-128) of 29.8 ± 6.3 µM and a Kd (PCG2-DBD 12-128) of 48.3 ± 5.2 µM. The Kd (PCG2-DBD WT [1]) was 0.81 ± 0.03 µM.

B2: MCB1 DNA (crystal) (dsDNA)
DNA 1: CAATGACGCGTAAG
DNA 2: CTTACGCGTCATTG
B2: binds (PCG2-DBD WT [2]).

Source: article PMC4333399
